The numbers were not newly measured in article PMC11087986, which cites them from elsewhere.

Where two headings read alike, the source gives them in different places.

Series [1] addresses RBM39 RRM1-RRM2 (Homo sapiens) (UniProt Q14498).
For series [2] the target is unchanged. The source holds these as a separate data set.
For series [3] the target is unchanged. The source holds these as a separate data set.

Sequence of UniProt Q14498 (Q14498 153-328): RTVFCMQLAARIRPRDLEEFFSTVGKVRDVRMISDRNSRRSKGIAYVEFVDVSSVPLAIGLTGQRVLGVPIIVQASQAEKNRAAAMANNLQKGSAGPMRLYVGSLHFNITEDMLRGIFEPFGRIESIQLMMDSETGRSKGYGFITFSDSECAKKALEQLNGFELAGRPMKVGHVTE

Broadly, the Kd is the constant that tells how readily two partners part at equilibrium. DCAF15 (from UniProt Q66K64): the values for the Kd in series [1], in series [2] and in series [3] were 120 nM, 4600 nM and 160 nM, respectively.
